Results on one molecule are retold here after article PMC12391449, “Hepatitis C virus NS3 helicase contributes to (−) strand RNA synthesis”.

The target of this data set is NS3h wt (NS3 helicase domain) (Hepatitis C virus JFH1 (genotype 2a), UniProt Q99IB8 1218-1662). In words: fluorescence polarization; probe; Kd of 5 nM only assumed for fit; FP competition: 15 nM NS3h, 15 nM Cy5-dT15, 25 mM MOPS pH 7.5, 1.25 mM MgCl2, 0.0025 mg/ml BSA, 0.005% Tween20, 0.025 mM DTT, 0-2000 nM competitor, 20 min, 23 C. The conditions noted are these: protein: recombinant; tags: C-terminal His tag; label: 5' Cy5. In general terms: Fluorescence polarisation rises when a labelled molecule tumbles more slowly, as on binding a larger partner.
Sequence of NS3h wt (NS3 helicase domain) (Q99IB8 1218-1662): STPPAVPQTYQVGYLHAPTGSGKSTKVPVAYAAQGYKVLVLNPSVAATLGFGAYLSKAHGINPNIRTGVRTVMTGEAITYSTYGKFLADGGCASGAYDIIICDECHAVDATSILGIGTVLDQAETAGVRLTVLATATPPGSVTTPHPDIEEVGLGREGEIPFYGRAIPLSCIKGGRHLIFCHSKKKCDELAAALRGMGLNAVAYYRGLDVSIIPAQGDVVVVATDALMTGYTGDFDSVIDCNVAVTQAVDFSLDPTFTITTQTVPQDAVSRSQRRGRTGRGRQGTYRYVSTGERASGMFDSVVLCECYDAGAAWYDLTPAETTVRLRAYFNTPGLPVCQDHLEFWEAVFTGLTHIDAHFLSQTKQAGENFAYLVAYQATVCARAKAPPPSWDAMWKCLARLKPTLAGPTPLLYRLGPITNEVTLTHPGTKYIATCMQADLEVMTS

Turning to TTTTTTTTTTTTTTT (ssDNA) [Cy5-dT15], the binding result is listed as “binds”.
